The record followed here is the NTF2 design screens of Basanta et al. (2020).

The data set in a line: protease stability score; higher = more stable; yeast display proteolysis, trypsin and chymotrypsin.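 Further: relative to predicted unfolded state with 0 unfolded-like and 1 meaning tenfold more protease.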
In the case of “SEDERDIEHAVKVEIKSYETGDEKSWREYVDPHVRIEQGDFLFHGWEDAVKLYAKIKNLTLEVKDMKVYNGRVHSEGVFKFNGQSMETRLIIFKIDGQWIVHSIHIK”, the protease stability score worked out at 1.82.

For “DELEHWAHIILEEFTRLYTTGDEETFNHLADPDTRLFFNGREFIGREKFIDAWRHLRYKEIRLRDHQVDVQGDKMRMILHMRVNSNINGREVEQDVHLEILTKKIDGRWRLKEVHFQTH”, the protease stability score came out at 2.39.

With “SDEDHEAHRMMRLFFEAQRTGDEHLVRKLVDPDVRTFYGEKHMHGRRHHVEILLEIRIHRLTITELRVYGEKVRMDIRVDEQIGDKRREVRFELHLVVIDGVLKVVSIDME”, the protease stability score amounted to 0.92.

Regarding “SEEEEIYKRIADLFLQIFSTGDEDRLHRLADPDVKWEYGDKKNVGMKDVIHYFEHIWMHVERSDNTDVDLQGNKARVDMRSDIRIEINGRELRIKVSVLIIIVKFNGRWTVHSLRIE”, the protease stability score is 1.27.

In turn, “SEDEHEMRLALEKEIKDWHTGDEDSLRELADPDVRLTVNGKRKHGWEILDVLLKHLRVRSVEIKHLRLQGDKAEMDLRMDGEVGDKRINLITHVIMYKVDGKWIIEEIVVK” returned a protease stability score of 1.43.

For “RHEEEVLEHWMRLYIEALLTGDEHTLHRLLDPNAKVHIDGRDVVGREEIVRWLREFWNEIRIKHLTISDLKIYGEYVHITGTLNVQVNGQTEHRRIEIDLVIIDGVFKESEVRIH”, the protease stability score turned out to be 2.39.

Regarding “SEDEKDAHEAVKRMVHFSETGDWREIEELADPHYRIDWNGRTHIGREEFTEITKRLGINVIRHRHITIINGRIHVHGEVHFNGQSTEVEFIITKINGKWRLHEMIIR”, the protease stability score came to 0.747.

“SKDEDDMRRWAEILIQDFITGDEDRMNHLLDPNTRVQVNGVQDHGMEALEKLFEILGFKHIDIKDLHIKLIGDKVEQDVVLRLNVNGKERKVKVHNFAEKVDGRWFVESITVHVR” yielded a protease stability score of 1.02.

“SEDEEEISEFTRMHLEDIITGDEDTLRRLVDPNVRIFIDGKHIHGMETYVKRLDENFKHLGVDHVEIRIHQIRLINGRARVDGVLIIEIGDKREERRTFLILLKVNGRWVMEEYRIH” registered a protease stability score of 1.07.

Sequence “TEEERIMLEAIDLLIELWRTGDWKLLDEMVDPRVRIEIGEFTHHGREEYLRILLEEVRRADHRRYHIDHLEIINGRVILNGFIDLTFNGVHLRIREHLVAEKVNGRWLLREIRQR” came in with a protease stability score of 1.72.

For “SEENEHLHHLMRLVIEMFETGDEDRWYKLADPNTRMEVDGREFIGREEVIKFLRNLGVNHFWIDDVDIINGRAHIRSTLRFNGQERDLNINLHFVDGKLKREKWIIR”, the protease stability score turned out to be 0.841.

In turn, “SEHTHAAVRIMELESEYLTTGDWESVRRLLDPHVQVEIGDFHAHGWEERVRRMREIRVKVQDLRIRTIDFYNGRVELHFELHVRIEFNGRDVRQDTEIVLIVLKVNGKWLVDKIRFE” had a protease stability score of 0.901.

“DDEKREMVEMLKIFIHNFLTGDWRTMEKLLDPDARFIINGQTFHGREWVRHSLHVFLHQFEHIHHIVIHDIDLQGDKVNIDGKLDGTVNGKRRLLDSHWHLRVVNGRVKEIEIHIH” showed a protease stability score of 2.12.

In the case of “SEDREFMKTDLERWRHDLLTGDEESSHRLADPHVRVYIGDKEFIGREELRRVLREFIERFKGARIEVRLRSLHLIDGRMHIDTEWHIHVGEKHIMLDIKINQDKVNGRWELRNEVIS”, the protease stability score is 1.11.

For the sequence “DERERDARIYFHLLLHVIMTGNEEDLERFMDPHARIQIGDKMVHGRENVYHELLRIAREMRLHHSHIHEIRVIDGRVILKGHLDLEVGDKRELVDVEWIVIKVNGKWIFHSVHFR”, the protease stability score was found to be 2.53.

In the case of “DEEEKLVRYLRELMKKAWLTGDEDYIRKLMDPDTWFIYGDKHWHGMEEVTKAFEYLLHHLRIEHSIDRHVSIIGNKVHIDGEVDVTIGEKRDRRRQEIILIIVDGRIKTIEFHER”, the protease stability score came out at 0.942.

Regarding “DENHEVAEYILKILVESLETGNEELFKRLIDPNVRIEINGVEVHGWQFWIDHIDELRIRRVEAILRDAREYNGRIDMDTELKMDGEIDGVRTETSRRVRMVLEKVNGRWYVREIRIE”, the protease stability score is 2.39.

Turning to “SEEEEHIHRLARLYWRLWETGDEETLAHLMDPNVRQIIHVGDKEFHNVGREKIIKVTKHVFEKLGVKHIKIRDMRVINGVVEIDTEVNVDGRTFDTRIKVLIVDGRIHELRWIVE”, the protease stability score was 1.65.

In turn, “SEEDHFMKHLVDHWAKIEQTGDEHALHELLDPDARVSIKIGDKEHIVHGREYLIELWRQLGFKVIKIHDHTVFNGVVKLHGHWHFDGREVHVEQDLIIINGRVKTVLMRVK” gave a protease stability score of 1.72.

Sequence “DEENEHSEKISEEVLHALHTGDWNRLAHLADPHTLLIIEYGDKEIVNHGWEVFVKWILDVFRKVKNIKVHIRDSKVIGDKIHLDVEIHFNGRTTTVHIDITIIDGRLHSIHINHK” gave a protease stability score of 1.8.

For the sequence “DEEERDMKHSSERLLRTWVTGDEDLLRTLADPDARHHLEVDGVHLHLHGMEHFSKWTTDLIEKLGIKHFDMKDLDVQGDKIHVHSTFHYGDKTFEVRLIVVKIDGKWLLSHSSFIVR”, the protease stability score is 0.299.

Sequence “SEEEQSARKVIEDLIRDLVTGDEKSLRRLMDPHVRFDIGDKELIGREEVLEFWRHIRIHDIKLEDVRLIDGRATVEGKLNGEINGVHHRLDEHIFIYKVDGRWVVHEIRII” registered a protease stability score of 1.53.

“DEEEEEARIAVDMFRRTVETGDEELLRKMIDPHVRMHVGDKDLHGRDFAVEIFHKLGVDHFEIRHQRLIGDKVELDIKVNVNGKEMETHSHLEKVNGRWVIRSLDVR”: the protease stability score came to 1.25.

Regarding “DEDRKVAEEVIRIITHESRTGDWDRISENLDPDARVEVDGRHVHGRERFVEFVLHARIEHSHVHDVSMINGRLKVDTELRGIWNGREIDTQVYIISLKIDGRWYLESIHIS”, the protease stability score stood at 1.34.

“TEEEEESKKAVEDLLHTIKTGNEEHMDRLLDPNVRLHVGDKDFVGREAFRHFWHEEWERFKNIKVELEDVKIFNGRVQIVLRIDIGDKHHRLHVYADKINGRWFIKRVEIE” registered a protease stability score of 2.

As for “SEDAEYIKEFAELFFRWWITGDEEHLRSLADPHTRSDVNGRDIHGMELWSKMLLDHLTKIKNVRYTLREVRFFENHTELDMKVDINGKEMKFSIRVSLINGRLHSITVRLHSE”, the protease stability score is 1.35.

“SEEDHRAKHIFHLFLHWFLTGDWEIFEHYADPRMRTLVNGKNFHGWEETVKFLDHIFKELRVHHIHVDHLEVQGDKYHFEVRVDREYNGRREITIMYIHFLIFNGKVKSILIIIH” showed a protease stability score of 1.08.

“DEERKLATELFKWLIDLYLTGDEETFEKLADPHYLSDVNGRNIHGMELISHIWREEIEKYGWEIHIKIRHIELQGDKSKSETEIHNNYDGRRIVFETRIIVRIVNGRIKSIEVRFR” gave a protease stability score of 1.28.

In turn, “DEVEELAKRLLEELIHALETGDFDHNRHLLDPNVRIVIGEKDHVGWREVTKALRHMGIDHIHVRIHRIEVQGDKVHTESSVEMDINGKKLEFDTWLILRKVNGRWLFHSIEIR” had a protease stability score of 1.44.

“DEEEEINKKIVEDLFRALITGDEERQLKNMDPNTKIRTNVNGQDYIFHGRDLWVTLWNRFKNLRVEIESVHRQGNKIHFDTRLLFNGRIFQYHIVVISVNGQTKELKEHDE” displayed a protease stability score of 1.24.
